Results published in US6998239B1, “Method for identifying a modulator of the binding of CCX CKR polypeptide to a chemokine” (ChemoCentryx, Inc., priority 1999, dated 2006).
“Also recorded” adds a separate entry of the source.

T1: CCX CKR (Homo sapiens, UniProt Q9NPB9)
T1 construct: Full length CCX CKR expression constructs were made in pIRESpuro expression vector; expressed in transfected cells
T1 sequence (Q9NPB9 1-350): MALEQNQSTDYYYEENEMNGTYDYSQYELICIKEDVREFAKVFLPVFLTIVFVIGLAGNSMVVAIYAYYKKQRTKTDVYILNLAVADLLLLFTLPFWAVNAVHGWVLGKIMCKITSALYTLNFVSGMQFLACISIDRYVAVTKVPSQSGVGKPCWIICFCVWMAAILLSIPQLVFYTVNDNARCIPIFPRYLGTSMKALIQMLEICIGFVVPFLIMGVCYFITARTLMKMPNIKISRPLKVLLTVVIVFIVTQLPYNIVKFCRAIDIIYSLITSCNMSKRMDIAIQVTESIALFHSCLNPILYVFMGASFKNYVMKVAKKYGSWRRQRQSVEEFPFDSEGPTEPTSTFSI

B1: murine CTACK: murine chemokine CTACK, also referred to as CCL27, ALP, ILC, and ESkine (protein)
chain: LPLPSSTSCCTQLYRQPLPSRLLRRIVHMELQEADGDCHLQAVVLHLARRSVCVHPQNRSLARWLERQGKRLQGTVPSLNLVLQKKMYSHPQQQN
B2: mMIP-1gamma: murine chemokine MIP-1γ (CCF18) (protein)
chain: QITHATETKEVQSSLKAQQGLEIEMFHMGFQDSSDCCLSYNSRIQCSRFIGYFPTSGGCTRPGIIFISKRGFQVCANPSDRRVQRCIERLEQNSQPRTYKQ
B3: SLC: secondary lymphoid-tissue chemokine, recombinant (protein)
chain: SDGGAQDCCLKYSQRKIPAKVVRSYRKQEPSLGCSIPAILFLPRKRSQAELCADPKELWVQQLMQHLDKTPSPQKPAQGCRKDRGASKTGKKGKGSKGCKRTERSQTPKGP
B4: vMIPII: virally-encoded chemokine from the human Kaposi's sarcoma herpesvirus HHV8 (protein)
chain: LGASWHRPDKCCLGYQKRPLPQVLLSSWYPTSQLCSKPGVIFLTKRGRQVCADKSKDWVKKLMQQLPVTAR
B5: TECK: thymus expressed chemokine, recombinant (protein)
chain: QGVFEDCCLAYHYPIGWAVLRRAWTYRIQEVSGSCNLPAAIFYLPKRHRKVCGNPKSREVQRAMKLLDARNKVFAKLHHNTQTFQAGPHAVKKLSSGNSKLSSSKFSNPISSSKRNVSLLISANSGL

Assays:
CCX CKR [1] = biological target: T1, CCX CKR; test: Ligand induced internalization of CCX CKR in 293 F-CCR10 cells (FACS, anti-Flag); type: cell-based; details: 100 nM chemokine, 37° C., 15 or 45 minutes
Experimental: 293 cells transfected with the Flag-CCX CKR fusion plasmid (i.e., “293 F-CCR10 cells;” see Example 3) were incubated at 37° C. with varying concentrations of chemokines (ELC, SLC, TECK, murine CTACK and MCP4) for 15 or 45 minutes. Following incubation, the cells were washed and fixed with 3% paraformaldehyde for 15 minutes on ice. The cells were stained with anti-Flag M1 antibody, followed by a PE-conjugated anti-mouse secondary antibody. FACS analysis were then carried out to determine surface expression of the receptor.
Results: A reduction in antibody binding in the presence of ligand is an indication of ligand-induced internalization of the receptor.

CCX CKR [2] = biological target: T1, CCX CKR; test: Radioligand binding competition with Scatchard transformation (binding constants); details: for Affinity class of CCX CKR ligands (summary of Examples 4-6): summary statement
Description: (§1) In one embodiment, binding is detected as described by Dairaghi et al., 1997, J. Biol. Chem. 272:28206-209 (incorporated by reference in its entirety for all purposes) substituting CCX CKR transfectants for the CCR3 transfectants). In one embodiment, binding is detected using the filter based technique described by Dairaghi et al., 1999, J. Biol. Chem. 274:2156 (incorporated by reference in its entirety for all purposes), e.g., as shown in FIG. 4. Briefly, this technology employs expanded, efficiency-maximized radioligand binding utilizing filtration protocols. In these assays, 1×10^5 CCXCKR-293 HEK cells are incubated with […] (MlP3beta) (final concentration of ˜0.05 nM) in the presence of unlabeled chemokine for 3 h at 4° C. in 25 mM HEPES, 140 mM NaCl, 1 mM CaCl2, 5 mM MgCl2, and 0.2% bovine serum albumin, adjusted to pH 7.1. Reactions were aspirated onto PEI-treated GF/B glass filters using a cell harvester (Packard). Filters are washed twice (25 mM HEPES, 500 mM NaCl, 1 mM CaCl25 mM MgCl2, adjusted to pH 7.1) and scintillant (e.g., MicroScint 20; 50 μl) is added to dried filters and counted (e.g., using a Packard Topcount scintillation counter). The competition dose-response curves is analyzed by standard methods to determine IC50 values (e.g., using GraphPad Prism software (San Diego, Calif.)). Additionally, a Scatchard transformation can be used to estimate the receptor sites per cell (e.g., using WaveMetrics Igor software (Lake Oswego, Oreg.)).
(§2) Binding analysis was carried out using efficiency-maximized radioligand binding utilizing filtration protocols designated “Displace Max” (Dairaghi et al., 1999, J Biol. Chem. 274:21569). In these assays, DisplaceMax employed the simultaneous interrogation of CCX CKR transfectants by >80 distinct purified chemokines in the ability to displace radiolabeled ELC or TECK, using the protocol described (Dairaghi et al., 1999, J Biol. Chem. 274:21569).
The binding interactions identified in the primary screen were examined quantitatively by extensive radioligand binding competition to CCX CKR stable transfectants and Scatchard transformation of the displacement data (FIG. 4B). […] In each case, the murine versions of these chemokines also bound, and with even greater affinity; the apparent Kd's are listed in FIG. 4B. […] In similar experiments, murine CTACK bound the receptor with a Kd of ˜9 nM (not shown). CTACK is also referred to as CCL27, ALP, ILC, and ESkine.

CCX CKR [3] = biological target: T1, CCX CKR; test: Ligand binding fingerprint: displacement of 125I-ELC from CCX CKR stable transfectants by cold chemokines; details: cold competitor 200 nM; human and murine ELC, SLC, TECK; comparable with 125I-TECK
Description: as §1
In order to rapidly and thoroughly define a given chemokine receptor's ligand binding fingerprint, we have established an approach to comprehensively profile chemokine receptors using a large array of purified chemokines and chemokine variants. We used this approach to confirm independently the interaction of ELC and other chemokines with CCX CKR. Employing radioligand binding of ^125I-labeled-ELC or ^125I-TECK to CCX CKR stable transfectants, chemokine specificity for the new receptor was determined.
as §2

CCX CKR [4] = biological target: T1, CCX CKR; test: Adhesion of HEK293-CCX CKR cells to immobilized ELC-stalkokine and competition by soluble chemokines; type: cell-based; details: 5-10 ug/ml soluble recombinant chemokine as competitor
Description: “Stalkokine” technology was used to :identify the chemokines bound by the CCX CKR. Briefly, immobilized native chemokines alone are incapable of capturing cells bearing cognate receptors (Imai et al., 1997, Cell 91:521). We have developed non-native chemokine structures, stalkokines, comprising chemokine moieties engineered as N-terminal attachments to extended modified mucins (Bazan et al., 1997, Nature 385:640). In one embodiment, stalkokines, harvested in the supernatants of HEK293 cells after transient transfection, are anchored to solid substrates via antibodies against carrier domains (e.g. poly-His epitopes) engineered to the carboxyl terminus, leaving the chemokine domain free to interact with candidate orphan receptors.
To determine ligand binding to CCX CKR, HEK293-CCX CKR cells were used to interrogate chemokine ‘stalkokines’ (SK), i.e., molecules in which discrete chemokine domains were engineered to be tethered to the end of an extended stalk structure. […] In all cases, nonadherent cells were removed by washing in PBS; remaining adherent cells were fixed with 1% glutaraldehyde, photoimaged and counted. […]

CCX CKR [5] = biological target: T1, CCX CKR; test: Preliminary chemotaxis analysis of CCX CKR transfectants; type: cell-based; details: preliminary chemotaxis analyses, not shown
CCX CKR [6] = biological target: T1, CCX CKR; test: Homologous competition binding of radiolabeled chemokine on HEK293-CCX CKR cells; details: data not shown
Description: Furthermore ELC-SK mediated adhesion was abolished in the presence of soluble native ELC as a competitor (FIG. 3A, top row). […] Moreover, radiolabeled ELC was used in a traditional homologous competition assay in the presence of increasing concentrations of unlabeled ELC. […] Taken together, the stalkokine-based adhesion and radiolabeled ligand binding/homologous competition assays indicate that CCX CKR is a new chemokine receptor that bound a novel compliment of chemokines.

| Molecule | Internalization of the receptor (CCX CKR [1]) | Affinity class of CCX CKR ligands (summary of Examples 4-6) (CCX CKR [2]) | Binding to CCX CKR by displacement of 125I-labeled ELC (CCX CKR [3]) | Effect of soluble chemokine on ELC-SK mediated adhesion of HEK293-CCX CKR cells (CCX CKR [4]) | Migration of CCX CKR transfectants in response to chemokine (CCX CKR [5]) | Affinity for CCX CKR in multipoint competition, in words (CCX CKR [2]; competition against 125I-ELC) | Homologous competition of radiolabeled TECK with cold TECK (CCX CKR [6]) |
| --- | --- | --- | --- | --- | --- | --- | --- |
| B1 | Internalization of the receptor was observed | high affinity |  |  |  |  |  |
| B2 |  | lower affinity | moderately |  |  |  |  |
| B3 | Internalization of the receptor was observed | high affinity | bound well | ablation of adhesion; also recorded: significant reduction | moderate migration |  |  |
| B4 |  | lower affinity | lower affinity |  |  | moderate to low affinity |  |
| B5 | Internalization of the receptor was observed | high affinity | bound well | ablation of adhesion; also recorded: significant reduction |  |  | Nearly identical results |
